Source: IntAct's records for PubMed 9701578

B1: Receptor protein kinase CLAVATA1 (Arabidopsis thaliana (Mouse-ear cress)), Q9SYQ8 (parent)
chain: MAMRLLKTHLLFLHLYLFFSPCFAYTDMEVLLNLKSSMIGPKGHGLHDWIHSSSPDAHCSFSGVSCDDDARVISLNVSFTPLFGTISPEIGMLTHLVNLTLAANNFTGELPLEMKSLTSLKVLNISNNGNLTGTFPGEILKAMVDLEVLDTYNNNFNGKLPPEMSELKKLKYLSFGGNFFSGEIPESYGDIQSLEYLGLNGAGLSGKSPAFLSRLKNLREMYIGYYNSYTGGVPPEFGGLTKLEILDMASCTLTGEIPTSLSNLKHLHTLFLHINNLTGHIPPELSGLVSLKSLDLSINQLTGEIPQSFINLGNITLINLFRNNLYGQIPEAIGELPKLEVFEVWENNFTLQLPANLGRNGNLIKLDVSDNHLTGLIPKDLCRGEKLEMLILSNNFFFGPIPEELGKCKSLTKIRIVKNLLNGTVPAGLFNLPLVTIIELTDNFFSGELPVTMSGDVLDQIYLSNNWFSGEIPPAIGNFPNLQTLFLDRNRFRGNIPREIFELKHLSRINTSANNITGGIPDSISRCSTLISVDLSRNRINGEIPKGINNVKNLGTLNISGNQLTGSIPTGIGNMTSLTTLDLSFNDLSGRVPLGGQFLVFNETSFAGNTYLCLPHRVSCPTRPGQTSDHNHTALFSPSRIVITVIAAITGLILISVAIRQMNKKKNQKSLAWKLTAFQKLDFKSEDVLECLKEENIIGKGGAGIVYRGSMPNNVDVAIKRLVGRGTGRSDHGFTAEIQTLGRIRHRHIVRLLGYVANKDTNLLLYEYMPNGSLGELLHGSKGGHLQWETRHRVAVEAAKGLCYLHHDCSPLILHRDVKSNNILLDSDFEAHVADFGLAKFLVDGAASECMSSIAGSYGYIAPEYAYTLKVDEKSDVYSFGVVLLELIAGKKPVGEFGEGVDIVRWVRNTEEEITQPSDAAIVVAIVDPRLTGYPLTSVIHVFKIAMMCVEEEAAARPTMREVVHMLTNPPKSVANLIAF
partner: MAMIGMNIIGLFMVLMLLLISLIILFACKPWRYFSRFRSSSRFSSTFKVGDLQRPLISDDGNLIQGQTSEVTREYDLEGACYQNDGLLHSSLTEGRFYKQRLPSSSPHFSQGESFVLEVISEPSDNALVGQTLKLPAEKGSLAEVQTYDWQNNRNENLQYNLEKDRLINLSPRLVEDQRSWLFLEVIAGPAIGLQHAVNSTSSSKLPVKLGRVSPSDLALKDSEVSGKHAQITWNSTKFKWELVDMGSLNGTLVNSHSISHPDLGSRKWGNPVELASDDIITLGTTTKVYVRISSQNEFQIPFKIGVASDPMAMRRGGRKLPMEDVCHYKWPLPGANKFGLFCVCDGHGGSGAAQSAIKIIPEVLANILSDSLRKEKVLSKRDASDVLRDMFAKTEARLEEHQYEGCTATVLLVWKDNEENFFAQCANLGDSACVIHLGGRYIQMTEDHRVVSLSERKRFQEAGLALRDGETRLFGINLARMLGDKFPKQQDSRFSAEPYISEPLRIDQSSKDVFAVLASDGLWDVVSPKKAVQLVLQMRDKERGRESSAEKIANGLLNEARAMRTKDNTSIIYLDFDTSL

Variants of: B1
Conditions: with KAPP

| Variant | effect of a mutation on the interaction |
| --- | --- |
| K720E | disrupting interaction |
